Reference: PMC6111544, “Development of a Novel Q-body Using an In Vivo Site-Specific Unnatural Amino Acid Incorporation System” (Sensors (Basel, Switzerland), 2018)
Like-named read-outs stand apart in the source and are kept apart here.

T1: Nef protein (HIV-1 NL43), wild type (HIV-1 NL4-3 (NL43), strain)
T1 chain: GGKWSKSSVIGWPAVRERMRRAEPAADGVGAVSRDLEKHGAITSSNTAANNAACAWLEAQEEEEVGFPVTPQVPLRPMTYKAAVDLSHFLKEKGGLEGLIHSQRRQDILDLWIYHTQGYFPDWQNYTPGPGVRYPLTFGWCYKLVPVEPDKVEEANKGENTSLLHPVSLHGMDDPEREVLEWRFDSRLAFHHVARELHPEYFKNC


Key:
[1] = target: T1, Nef protein (HIV-1 NL43), wild type
[2] = target: T1, Nef protein (HIV-1 NL43), wild type; test: far-Western, overlay or dot blot; Western blotting: Nef wt and Nef Δ2-11 resolved by SDS-PAGE, transferred to PVDF, probed with the anti-Nef antibody, detected with anti-streptavidin IgG-HRP; anti-His-tag antibody as control; details: both partners purified

Row | Binder | binding result [1] | binding result [2]
1 | anti-Nef (antibody, V domains shown) VH: QVQLQQSGAELVKPGASVKLSCTASGFNIKDTYMHWVKQRPEQGLEWIGRIDPANGNTKYDPKFQGKATITADTSSNTAYLQLSSLTSEDTAVYYCASYYGIYWGQGTTLTVSS VL: DIKMTQSPSSLSASLGERVSLTCRASQEISGYLSWLQQKPDGTIKRLIYAVSTLDSGVPKRFSGSRSGSDYSLTISSLESEDFADYYCLQYATYPLTFGAGTKLELK | binds | –
2 | anti-Nef antibody (single-chain variable fragment for which the antigen is HIV Nef protein) (scFv, V domains shown, scFv isolated in vitro from a constructed mouse antibody library; Section 2.4 describes expression in E. coli MV1184 and purification on an IgG-conjugated column for the antibody vectors; also called wt anti-Nef antibody; scFv) VH: EVKLVESGAELVRPGASVKLSCTASGFNIKDDYMHWVKQRPEQGLEWIGWIDPENGDTEYASKFQGKATITADTSSNTAYLQLSSLTSEDTAVYYCTTRDVWGAGTTVTVMA VL: DIKMTQSPSSLSASLGERVSLTCRASQEISGYLSWLQQKPDGTIKRLIYAVSTLDSGVPKRFSGSRSGSDYSLTISSLESEDFADYYCLQYATYPLTFGAGTKLELK | – | binds
